The target of one series is porcine uteroferrin (UniProt P09889).

One substance from US6534300 can be followed below.

Sequence of UniProt P09889 (P09889 22-340): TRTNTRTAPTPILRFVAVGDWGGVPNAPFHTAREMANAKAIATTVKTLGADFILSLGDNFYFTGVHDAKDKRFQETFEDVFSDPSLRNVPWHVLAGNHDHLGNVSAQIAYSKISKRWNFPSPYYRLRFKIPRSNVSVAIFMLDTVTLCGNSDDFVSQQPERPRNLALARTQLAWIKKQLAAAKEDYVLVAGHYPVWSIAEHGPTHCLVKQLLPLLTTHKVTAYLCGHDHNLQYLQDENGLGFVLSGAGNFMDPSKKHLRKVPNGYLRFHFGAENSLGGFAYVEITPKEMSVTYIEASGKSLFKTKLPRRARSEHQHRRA

As for “bovine UDP-N-acetylglucosamine: lysosomal enzyme N-Acetylglucosamine-1-phosphotransferase”, the “Km as acceptor for transfer of GlcNAc-1-P” value was “the Km was not reached at the solubility limit of the protein (at 600 µM)” with RNAse B, “Kms below 20 µM” with porcine uteroferrin and “Kms below 20 µM” in the series on cathepsin D.
